Earlier results on one substance are cited in publication PMC7130864.

The target of this series is Kv1.3 (Homo sapiens) (UniProt P22001).
UniProt P22001, sequence (P22001 whole entry): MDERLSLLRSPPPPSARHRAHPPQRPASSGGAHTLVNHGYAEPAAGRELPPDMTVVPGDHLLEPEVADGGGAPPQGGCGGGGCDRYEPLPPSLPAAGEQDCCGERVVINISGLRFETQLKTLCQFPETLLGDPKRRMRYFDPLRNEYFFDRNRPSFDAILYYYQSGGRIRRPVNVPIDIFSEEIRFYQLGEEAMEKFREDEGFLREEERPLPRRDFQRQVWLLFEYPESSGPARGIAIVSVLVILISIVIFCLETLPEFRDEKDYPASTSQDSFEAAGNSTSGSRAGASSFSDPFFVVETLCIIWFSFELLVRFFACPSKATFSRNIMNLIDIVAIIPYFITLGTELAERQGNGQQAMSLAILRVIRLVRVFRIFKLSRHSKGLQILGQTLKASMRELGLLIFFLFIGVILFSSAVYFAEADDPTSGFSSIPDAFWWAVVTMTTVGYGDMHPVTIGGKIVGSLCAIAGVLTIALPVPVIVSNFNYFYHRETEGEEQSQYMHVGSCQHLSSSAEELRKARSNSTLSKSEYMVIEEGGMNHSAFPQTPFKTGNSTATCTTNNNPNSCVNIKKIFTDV

One may read the Kd as the free concentration of one partner at which half of the binding sites on the other are occupied at equilibrium, for simple one-to-one binding. Regarding BmKTX (from UniProt Q9NII7), the Kd is 0.2 nM.
